Measurements published in patent US20200368361A1 (Regeneron, published 2020).

T1: human MSR1 with a C-terminal Myc tag expressed on HEK293.Myc.hMSR1 cells (human, UniProt P21757 1-451)
T1 sequence (looked up): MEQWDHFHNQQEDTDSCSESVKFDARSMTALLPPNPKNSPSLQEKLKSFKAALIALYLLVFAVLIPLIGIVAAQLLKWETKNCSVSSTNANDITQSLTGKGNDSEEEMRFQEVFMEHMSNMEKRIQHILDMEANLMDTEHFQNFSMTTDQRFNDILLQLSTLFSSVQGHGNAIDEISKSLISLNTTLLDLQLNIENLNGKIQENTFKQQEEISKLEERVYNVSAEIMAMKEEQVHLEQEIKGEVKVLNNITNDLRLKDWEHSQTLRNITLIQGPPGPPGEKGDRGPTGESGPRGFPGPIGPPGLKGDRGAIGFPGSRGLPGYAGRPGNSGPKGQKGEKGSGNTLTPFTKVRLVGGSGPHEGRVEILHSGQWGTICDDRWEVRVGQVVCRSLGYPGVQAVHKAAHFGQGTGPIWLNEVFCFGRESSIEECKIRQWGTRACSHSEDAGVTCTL


Biological target: T1, human MSR1 with a C-terminal Myc tag …
Test: cell-based or functional assay

Binder	IC50 of inhibition of Dil-Acetylated LDL uptake [nM]	IC50 of inhibition of Dil-Oxidized LDL uptake [nM]	% Inhibition of Dil-Acetylated LDL uptake [%]	% Inhibition of Dil-Oxidized LDL uptake [%]
H2aM21228N (antibody, V domains shown) VH: VQLVESGGGLVQPGGSLRLSCAASGFTFSDHYMDWVRQAPGKGLEWVGRTRNKANSHTTEYAASVSGRFTISRDDSKNSLYLQMNSLKTEDTAVYYCTRAGIIGTLFDYWGQGTLVTVSS VL: not shown	> 100	3.1		
H1H27734P-N297Q (antibody, V domains shown) VH: EVQLVESRGGLVQPGGSLRLSCAASGFTFSSYAMSWVRQAPGKGLEWVSAISGSGGSTFYADSVKGRFTISRDNSKNTVYLQMNSLRAEDTAVYYCAKALVLRFLEWLGDYWGQGTLVTVSS VL: DIQMTQSPSTLSASVGDRVTITCRASQSISSWLAWFQQKPGKAPKLLIYKASSLESGVPSRFSGSGSGTEFTLTISSLQPDDFATYYCQQYKSYWTFGQGTKVEIKR		5.5		
H1H27739P-N297Q (antibody, V domains shown) VH: EVQLVESGGGLVQPGGSLRLSCTASGFTFSSYAMSWVRQAPGKGLEWVSAISGTGSSTYFTDSVKGRFAISRDNSKNTLYLQMNSLRAEDTAVYYCAKDGEWLSTVTLFDYWGQGTLVTVSS VL: EIVMTQSPATLSVSPGERATLSCRASQSVSSNLAWYQQKPGQAPRLLIYGASTRATGIPARFSGSGSGTDFTLTISSLQSEDFALYYCQQYFIWPPHPTFGPGTKVDIKR		> 100		
H1H27747P-N297Q (antibody, V domains shown) VH: QVQLVESGGAVVQPGRSLRLSCAASGFTFSYYGMHWVRQAPGKGLEWVAVISYDGSKKYYADSVKGRFTISRDNSKNTLYLQMNSLRAEDTAVYYCAKDLTVDFYYGMDVWGQGTTVTVSS VL: DIQMTQSPSSVSASVGDRVTITCRASQGISSWLAWYQQKPGKAPKLLIYATSSLQSGAPSRFSGSGSGTDFTLTISSLQPEDFATYFCQQANSFPYTFGQGTKLEIKR	> 100	> 100		
H1H27751P-N297Q (antibody, V domains shown) VH: EVQLVESGGGLVQPGGSLRLSCAASGFTFSNYAMHWVRQAPGKGLEYVSAISSNGGSTYYADSVKGRITISRDNSKNTLYLQMGSLRAEDMAVYYCARGRPYYYYFGMDVWGQGTTVTVSS VL: not shown	1.6	2.9		
H1H27754P-N297Q (antibody, V domains shown) VH: EVQLVESGGGLVQPGGSLRLSCAASGFTFRTYAMTWVRQAPGKGLDWVSAITGDGGNTYYADSVKGRFTISRDNSKNTLYLQMNSLRAEDTAIYYCAKDQRFSFALYYFDYWGQGTLVTVSS VL: DIQMTQSPSSVSASVGDRVTITCRASQGISSWLAWYQQKPGNAPKLLIYAAFSLQSGVPSRFSGSGSGTDFTLTISSLQPEDFATYYCQQANNFPWTFGQGTKVEIKR	1.8	4.6		
H1H27756P-N297Q (antibody, V domains shown) VH: QVQLVESGGGVVQPGRSLRLSCAASGFTFSNYDMHWVRQAPGKGLEWMAVISYDGINKYYADSVKGRFTISRDNSKNTLYLQMNSLRAEDTAVYYCAKGTYSWYFDLWGRGTLVTVSS VL: not shown	> 100			
H1H27759P2-N297Q (antibody, V domains shown) VH: EVQLVESGGGFVQPGGSLRLSCAASGFTFSSYAMSWVRQAPGKGLEWVSAISGTGSNTYYADSVKGRFTISRDNSKNTLYLQMNSLRAEDTAVYYCAKDRVTTVTYYFDYWGQGTLVTVSS VL: not shown	> 100	> 10		
H1H27760P2-N297Q (antibody, V domains shown) VH: EVQLVESGGGLVQPGRSLRLSCAASGFTFDAYAMHWVRQAPGKGLEWVSGISWNSGSIGYADSVKGRFTISRDNAKNSLYLQMNSLREEDTALYYCAKDKILELYYYGMDVWGQGTTVTVSS VL: not shown	2.6	4.9		
H2aM21229N (antibody, V domains shown) VH: EVQLVESGGGLVKPGGSLRLSCAASGFTFSRYSMNWVRQAPGKGLEWVSSISSSSSYIYYGDTVKGRFTISRDNAKKSLYLQMNSLRAEDTAVYYCVRDRGQLVLYFDYWGQGTLVTVSS VL: DIQMTQSPASLSTSIRDRVTITCRASLSISSFLNWFQQRPGKAPKLLIYVASNLQSGVPSRFSDSGSGTDFTLTISSLQPEDFATYYCQQNYSTPPITFGQGTRLEIK		> 100		
H1H27761P2-N297Q (antibody, V domains shown) VH: EVQLVESGGDLVQPGGSLRLSCSASGFTFNIYAMSWVRQAPGKGLEWVSGISGSGGSTYYADSVKGRFTISRDNSKNTLYFQMNSLRVEDTAVYYCAKKISSSSYYYYAMDVWGQGTTVTVSS VL: not shown	> 100	9.5		
H1H27762P2-N297Q (antibody, V domains shown) VH: QVQLVQSGAEVKKPGSSVKVSCKASGGTFSRYDISWVRQAPGQGLEWMGGIIPIFGTSNYAQKFQGRVTITTDESTSTVYMELSSLRSEDTAVYYCARGGRYGWFDPWGQGTLVTVSS VL: not shown	2.9	4		
H1H27766P2-N297Q (antibody, V domains shown) VH: EVQLVESGGGLVQPGGSLRLSCAASGFTFSSFAMSWVRQAPGKELEWVSSISGRGGSTYYADSVRGRFTISRDNSKITLYLQMNSLRAEDTAVYYCAKDIVFRYTSSAYWYFDLWGRGTLVTVSS VL: not shown	3.5	3.7		
H1M21231N (antibody, V domains shown) VH: EVQLVESGGGLVQPGGSLRLSCAASGFTFSDHYMDWVRQAPGKGLEWVGRTRNKANSHTTEYTASVTGRFTISRDDSRNSLYLQMNSLKTEDTAVYYCVRAGIIGTLFDYWGQGTLVTVSS VL: DIQMTQFPSSLSASVGDRVTITCRASQSISSFLNWFQQKPGKAPKFLIYAASSLQSGVPSRFSGSGSGTDFTLTISSLQPEDFATYYCQQSYSSPPITFGQGTRLEIKR	> 20	3.7		
H2bM21234N (antibody, V domains shown) VH: QVQLQESGPGLVKPSETLSLTCTVTGGSISRNYWSWIRQPPGKGLEWIGYIYYSGSIDYNPSLKSRVTISVDTSKNQFSLKLSSMTAADTAVYYCARDRWNWKYGMDVWGQGTTVIVSS VL: EIVLTQSPGTLSLSPGERATLSCRASQTVRNNYLAWYHQKPGQAPRLLIYGASSRATGIPDRFSGSGSGTDFTLTISRLEPEDFTVYYCHQYGNSPWTFGQGTKMEIKR	1.8	4.5		
H2aM21235N (antibody, V domains shown) VH: EVQLVESGGGLVQPGGSLRLSCAASGFTFSDHYMDWVRQAPGKGLEWVGRTRNKANSYTTEYAASVSGRFTISRDDSKNSLYLQMNSLKTEDTAVYYCTRAGIIGTLFDYWGQGTLVTVSS VL: DIQMTQSPSSLSASVGDRVTITCRASQIIGRYLNWFQQKPGKVPKLLIYAASSLQRGVPSRFSGSGSGTDFTLTISSLQPEDFATYYCQQSYNTPPITFGQGTRLEIKR	> 100			
H2aM25685N (antibody, V domains shown) VH: QVQLVQSGAEVREPGASVKLSCKVSGYTLTELSIHWVRQAPGKGLEWMGGFDPEEGETVYAQKFRGRVTLTEDISPDTAYMELSSLTSEDTAVYYCATPRYCNNGICYDYWGQGTLITVSS VL: not shown	> 100	> 100	22	43
